Experimental findings from the Human Domainome abundance scans (Beltran et al. 2025) are described below.

± gives the uncertainty stated by the source.

A short description of the data set: abundance fitness (aPCA) (normalised: wild type 0, dead -1); higher = more abundant; growth selection in yeast, the domain comes from the species named. The following applies: Homo sapiens.
The substance “DnaJ homolog subfamily B member 1 A49F, P25685” returned an abundance fitness of -0.358 ± 0.15.
In the case of “DnaJ homolog subfamily B member 1 A49G, P25685”, the abundance fitness is -0.187 ± 0.12.
Consider “DnaJ homolog subfamily B member 1 A49H, P25685”, for which the abundance fitness was -0.132 ± 0.18.
The figure for “DnaJ homolog subfamily B member 1 A49I, P25685” is -0.304 ± 0.16.
The figure for “DnaJ homolog subfamily B member 1 A49K, P25685” is 0.13 ± 0.13; for “DnaJ homolog subfamily B member 1 A49L, P25685” it is -0.75 ± 0.086.
The figure for “DnaJ homolog subfamily B member 1 A49N, P25685” is 0.115 ± 0.17; for “DnaJ homolog subfamily B member 1 A49P, P25685” it is -0.743 ± 0.074.
In the case of “DnaJ homolog subfamily B member 1 A49Q, P25685”, the abundance fitness is -0.394 ± 0.086.
“DnaJ homolog subfamily B member 1 A49R, P25685” yielded an abundance fitness of 0.021 ± 0.082.
As for “DnaJ homolog subfamily B member 1 A49S, P25685”, the abundance fitness is -0.037 ± 0.074.
“DnaJ homolog subfamily B member 1 A49T, P25685” registered an abundance fitness of 0.094 ± 0.099.
The figure for “DnaJ homolog subfamily B member 1 A49W, P25685” is -0.307 ± 0.088; for “DnaJ homolog subfamily B member 1 A49Y, P25685” it is -0.277 ± 0.18.
“DnaJ homolog subfamily B member 1 A51C, P25685” displayed an abundance fitness of -0.755 ± 0.18.
To “DnaJ homolog subfamily B member 1 A51D, P25685” belongs -1.19 ± 0.16; to “DnaJ homolog subfamily B member 1 A51E, P25685”, -0.718 ± 0.098; to “DnaJ homolog subfamily B member 1 A51F, P25685”, -1.49 ± 0.19.
To “DnaJ homolog subfamily B member 1 A51G, P25685” belongs -0.628 ± 0.061; to “DnaJ homolog subfamily B member 1 A51I, P25685”, -0.977 ± 0.17; to “DnaJ homolog subfamily B member 1 A51K, P25685”, -0.885 ± 0.15.
To “DnaJ homolog subfamily B member 1 A51L, P25685” belongs -1.06 ± 0.082; to “DnaJ homolog subfamily B member 1 A51M, P25685”, -1.1 ± 0.085.
For “DnaJ homolog subfamily B member 1 A51P, P25685”, the abundance fitness is -0.488 ± 0.098.
The figure for “DnaJ homolog subfamily B member 1 A51Q, P25685” is -0.755 ± 0.086.
To “DnaJ homolog subfamily B member 1 A51R, P25685” belongs -0.84 ± 0.067; to “DnaJ homolog subfamily B member 1 A51S, P25685”, -0.406 ± 0.08; to “DnaJ homolog subfamily B member 1 A51T, P25685”, -0.815 ± 0.071.
To “DnaJ homolog subfamily B member 1 A51V, P25685” belongs -0.915 ± 0.065.
“DnaJ homolog subfamily B member 1 A51W, P25685” came in with an abundance fitness of -1.08 ± 0.096.
“DnaJ homolog subfamily B member 1 A51Y, P25685” gave an abundance fitness of -0.576 ± 0.39.
The figure for “DnaJ homolog subfamily B member 1 D4E, P25685” is -0.186 ± 0.19.
To “DnaJ homolog subfamily B member 1 D4F, P25685” belongs -0.608 ± 0.48; to “DnaJ homolog subfamily B member 1 D4G, P25685”, -0.398 ± 0.17; to “DnaJ homolog subfamily B member 1 D4H, P25685”, -0.236 ± 0.44.
The figure for “DnaJ homolog subfamily B member 1 D4L, P25685” is -0.341 ± 0.23; for “DnaJ homolog subfamily B member 1 D4M, P25685” it is -0.196 ± 0.15.
With “DnaJ homolog subfamily B member 1 D4P, P25685”, the abundance fitness is -0.712 ± 0.16.
To “DnaJ homolog subfamily B member 1 D4R, P25685” belongs -0.151 ± 0.17; to “DnaJ homolog subfamily B member 1 D4S, P25685”, -0.193 ± 0.19; to “DnaJ homolog subfamily B member 1 D4T, P25685”, -0.207 ± 0.18.
To “DnaJ homolog subfamily B member 1 D4V, P25685” belongs -0.433 ± 0.13; to “DnaJ homolog subfamily B member 1 D4Y, P25685”, -0.256 ± 0.19.
For the substance “DnaJ homolog subfamily B member 1 D17A, P25685”, the abundance fitness was -0.072 ± 0.096.
To “DnaJ homolog subfamily B member 1 D17C, P25685” belongs 0.031 ± 0.23; to “DnaJ homolog subfamily B member 1 D17E, P25685”, -0.095 ± 0.1.
The figure for “DnaJ homolog subfamily B member 1 D17F, P25685” is -0.183 ± 0.12; for “DnaJ homolog subfamily B member 1 D17G, P25685” it is -0.199 ± 0.087.
As to “DnaJ homolog subfamily B member 1 D17H, P25685”, the abundance fitness is -0.182 ± 0.13.
The figure for “DnaJ homolog subfamily B member 1 D17I, P25685” is -0.029 ± 0.076; for “DnaJ homolog subfamily B member 1 D17K, P25685” it is -0.287 ± 0.14.
The figure for “DnaJ homolog subfamily B member 1 D17L, P25685” is 0.038 ± 0.072; for “DnaJ homolog subfamily B member 1 D17M, P25685” it is -0.06 ± 0.089; for “DnaJ homolog subfamily B member 1 D17N, P25685” it is -0.104 ± 0.12.
The figure for “DnaJ homolog subfamily B member 1 D17P, P25685” is -0.18 ± 0.071.
“DnaJ homolog subfamily B member 1 D17R, P25685” came in with an abundance fitness of -0.211 ± 0.084.
The figure for “DnaJ homolog subfamily B member 1 D17S, P25685” is -0.094 ± 0.073; for “DnaJ homolog subfamily B member 1 D17T, P25685” it is -0.161 ± 0.11.
On to “DnaJ homolog subfamily B member 1 D17V, P25685”, for which the abundance fitness was -0.059 ± 0.053.
“DnaJ homolog subfamily B member 1 D17W, P25685”: the abundance fitness was -0.142 ± 0.15.
For the substance “DnaJ homolog subfamily B member 1 D17Y, P25685”, the abundance fitness was -0.09 ± 0.078.
To “DnaJ homolog subfamily B member 1 D34A, P25685” belongs 0.058 ± 0.14; to “DnaJ homolog subfamily B member 1 D34C, P25685”, 0.009 ± 0.14; to “DnaJ homolog subfamily B member 1 D34E, P25685”, 0.188 ± 0.33.
To “DnaJ homolog subfamily B member 1 D34F, P25685” belongs -0.249 ± 0.1; to “DnaJ homolog subfamily B member 1 D34G, P25685”, -0.012 ± 0.11; to “DnaJ homolog subfamily B member 1 D34H, P25685”, -0.008 ± 0.11.
To “DnaJ homolog subfamily B member 1 D34I, P25685” belongs -0.233 ± 0.1.
“DnaJ homolog subfamily B member 1 D34K, P25685” yielded an abundance fitness of -0.046 ± 0.074.
To “DnaJ homolog subfamily B member 1 D34L, P25685” belongs -0.042 ± 0.066.
“DnaJ homolog subfamily B member 1 D34M, P25685” displayed an abundance fitness of -0.053 ± 0.1.
In turn, “DnaJ homolog subfamily B member 1 D34N, P25685” yielded an abundance fitness of -0.039 ± 0.17.
To “DnaJ homolog subfamily B member 1 D34P, P25685” belongs -0.285 ± 0.094.
As to “DnaJ homolog subfamily B member 1 D34Q, P25685”, the abundance fitness amounted to 0.054 ± 0.11.
For “DnaJ homolog subfamily B member 1 D34R, P25685”, the abundance fitness was -0.242 ± 0.089.
On to “DnaJ homolog subfamily B member 1 D34S, P25685”, for which the abundance fitness came out at 0.075 ± 0.061.
The figure for “DnaJ homolog subfamily B member 1 D34V, P25685” is -0.022 ± 0.081; for “DnaJ homolog subfamily B member 1 D34W, P25685” it is -0.02 ± 0.15.
“DnaJ homolog subfamily B member 1 D34Y, P25685” showed an abundance fitness of -0.135 ± 0.081.
To “DnaJ homolog subfamily B member 1 D53A, P25685” belongs -0.036 ± 0.088; to “DnaJ homolog subfamily B member 1 D53C, P25685”, -0.093 ± 0.37; to “DnaJ homolog subfamily B member 1 D53E, P25685”, -0.398 ± 0.12.
As to “DnaJ homolog subfamily B member 1 D53F, P25685”, the abundance fitness is -0.249 ± 0.19.
“DnaJ homolog subfamily B member 1 D53G, P25685” displayed an abundance fitness of -0.098 ± 0.15.
To “DnaJ homolog subfamily B member 1 D53H, P25685” belongs -0.262 ± 0.1; to “DnaJ homolog subfamily B member 1 D53I, P25685”, -0.224 ± 0.11; to “DnaJ homolog subfamily B member 1 D53K, P25685”, -0.067 ± 0.11.
The figure for “DnaJ homolog subfamily B member 1 D53L, P25685” is -0.058 ± 0.066.
The figure for “DnaJ homolog subfamily B member 1 D53M, P25685” is -0.124 ± 0.09.
As for “DnaJ homolog subfamily B member 1 D53N, P25685”, the abundance fitness was determined as 0.035 ± 0.12.
The figure for “DnaJ homolog subfamily B member 1 D53P, P25685” is -0.709 ± 0.079.
